Assay [1] has as its target Human CD3 epsilon (CD3epsilon) protein (His Tag) (human) (UniProt P07766). The assay can be described thus: ELISA, antigen coated on plate. In general terms: An ELISA detects its analyte on a solid surface through an enzyme-linked reagent.
Assay [2] has as its target Cynomolgus Monkey CD3 epsilon protein (Cynomolgus monkey) (UniProt Q95LI5). In words: ELISA, antigen coated on plate.
The target in assay [3] is mouse CD3epsilon protein (mouse) (UniProt P22646). In words: ELISA, antigen coated on plate.
For assay [4], the target named is human CD3 expressed on cells (Jurkat cells; human CD4 T cells) (human) (UniProt P07766). In words: flow cytometry on Jurkat cells.
Assay [5] has the same target. The assay can be described thus: flow cytometry on human CD4 T cells. In general terms: In flow cytometry, cells or beads pass a laser one at a time.
Assay [6] has the same target. The assay can be described thus: flow cytometry on Jurkat cells, one site saturation fit.
Assay [7] has the same target. The description is as above. This is another data set of the same source.

Like-named read-outs stand apart in the source and are kept apart here.

Sequence of human CD3 expressed on cells (Jurkat cells; human CD4 T cells) (human) (P07766 23-207): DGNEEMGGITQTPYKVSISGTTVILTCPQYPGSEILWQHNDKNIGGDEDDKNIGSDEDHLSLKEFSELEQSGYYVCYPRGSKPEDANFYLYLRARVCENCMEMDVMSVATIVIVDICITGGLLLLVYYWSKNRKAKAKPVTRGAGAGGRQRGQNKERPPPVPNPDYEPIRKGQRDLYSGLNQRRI
Sequence of Human CD3 epsilon (CD3epsilon) protein (His Tag) (human) (P07766 23-126): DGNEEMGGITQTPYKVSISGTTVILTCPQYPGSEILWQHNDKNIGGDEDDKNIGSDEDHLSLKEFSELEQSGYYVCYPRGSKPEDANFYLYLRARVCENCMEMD
Sequence of mouse CD3epsilon protein (mouse) (P22646 22-108 limits assumed): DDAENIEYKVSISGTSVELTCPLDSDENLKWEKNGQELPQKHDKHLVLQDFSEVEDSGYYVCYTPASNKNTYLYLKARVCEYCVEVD
Sequence of Cynomolgus Monkey CD3 epsilon protein (Cynomolgus monkey) (Q95LI5 22-117 limits assumed): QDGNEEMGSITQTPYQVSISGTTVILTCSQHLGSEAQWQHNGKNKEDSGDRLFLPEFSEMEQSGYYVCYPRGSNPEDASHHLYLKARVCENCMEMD

In general, EC50 refers to the concentration needed to bring the measured effect to its halfway point. In assay [1], WBP331-BMK1 (UCHT1) (antibody) came in with an EC50 of 0.186 nM.

Consider Negative Control (Table 7), for which the ELISA A450 was determined as 0.046 A450 in assay [2], 0.046 A450 in assay [1] and 0.179 A450 in assay [3].

In general, Kd refers to a measure of binding affinity in units of concentration. With Benchmark antibody OKT3, the ELISA A450 in assay [2] is 0.052 A450; in assay [1], 0.048 A450; in assay [3], 0.24 A450. Moreover, the EC50 in assay [4] came out at 0.2 nM; in assay [5] it was 0.202 nM. Besides, the figures for the Best fit-Bmax in assay [6] and in assay [7] were 9.41e-11 and 6.06e-12, respectively. The Kd came out at 0.129 nM in assay [6] and 0.0277 nM in assay [7].

These data come from US20200299384A1.
